Experimental data reported in publication PMC4138198.

Columns and labels:
[1] = target: Pmr-R8A (plasmid pCAR1 (isolated originally from P. resinovorans CA10)); test: SEC; 1 ml of purified protein at 140 uM on HiLoad 16/60 Superdex 200 prep grade in buffer B (20 mM Tris-HCl pH 7.5, 4°C, 0.5 M NaCl, 10% glycerol, 0.5 M imidazole); fractions checked by Tricine-SDS-PAGE and anti-His Western blot
[2] = target: Pmr (plasmid pCAR1 (isolated originally from P. resinovorans CA10)); test: as above
TurA (P. putida KT2440) = test: SPR; Biacore 2000, biotinylated Pmr, TurA or TurB (about 500 RU) immobilised on streptavidin chip SA, Pmr as analyte at lower concentrations; 4°C, 20 mM Tris-HCl pH 7.5, 0.5 M NaCl, 5% glycerol, 475 mM imidazole, 30 ul/min; Req divided by the immobilised amount
[3] = target: Pmr (plasmid pCAR1 (isolated originally from P. resinovorans CA10)); test: as above

Substance | stoichiometry N [1] | stoichiometry N [2] | binding amount of APmr per ligand homodimer, relative to LTurB-APmr (TurA (P. putida KT2440)) [fold] | binding amount of APmr per ligand homodimer, relative to LTurB-APmr [3] [fold]
Pmr-R8A (natural protein) | 6 -mer | – | – | –
Pmr (natural protein) | – | 35 -mer | 2 | 2
